Assay results published in IntAct's records for PubMed 25910212.

B1: Carbonyl reductase [NADPH] 3 (Homo sapiens), O75828 (parent)
chain: MSSCSRVALVTGANRGIGLAIARELCRQFSGDVVLTARDVARGQAAVQQLQAEGLSPRFHQLDIDDLQSIRALRDFLRKEYGGLNVLVNNAAVAFKSDDPMPFDIKAEMTLKTNFFATRNMCNELLPIMKPHGRVVNISSLQCLRAFENCSEDLQERFHSETLTEGDLVDLMKKFVEDTKNEVHEREGWPNSPYGVSKLGVTVLSRILARRLDEKRKADRILVNACCPGPVKTDMDGKDSIRTVEEGAETPVYLALLPPDATEPQGQLVHDKVVQNW
B2: von Hippel-Lindau disease tumor suppressor (Homo sapiens), P40337-2 (parent)
chain: MPRRAENWDEAEVGAEEAGVEEYGPEEDGGEESGAEESGPEESGPEELGAEEEMEAGRPRPVLRSVNSREPSQVIFCNRSPRVVLPVWLNFDGEPQPYPTLPPGTGRRIHSYRVYTLKERCLQVVRSLVKPENYRRLDIVRSLYEDLEDHPNVQKDLERLTQERIAHQRMGD
B3: Progranulin (Homo sapiens), P28799 (parent)
chain: MWTLVSWVALTAGLVAGTRCPDGQFCPVACCLDPGGASYSCCRPLLDKWPTTLSRHLGGPCQVDAHCSAGHSCIFTVSGTSSCCPFPEAVACGDGHHCCPRGFHCSADGRSCFQRSGNNSVGAIQCPDSQFECPDFSTCCVMVDGSWGCCPMPQASCCEDRVHCCPHGAFCDLVHTRCITPTGTHPLAKKLPAQRTNRAVALSSSVMCPDARSRCPDGSTCCELPSGKYGCCPMPNATCCSDHLHCCPQDTVCDLIQSKCLSKENATTDLLTKLPAHTVGDVKCDMEVSCPDGYTCCRLQSGAWGCCPFTQAVCCEDHIHCCPAGFTCDTQKGTCEQGPHQVPWMEKAPAHLSLPDPQALKRDVPCDNVSSCPSSDTCCQLTSGEWGCCPIPEAVCCSDHQHCCPQGYTCVAEGQCQRGSEIVAGLEKMPARRASLSHPRDIGCDQHTSCPVGQTCCPSLGGSWACCQLPHAVCCEDRQHCCPAGYTCNVKARSCEKEVVSAQPATFLARSPHVGVKDVECGEGHFCHDNQTCCRDNRQGWACCPYRQGVCCADRRHCCPAGFRCAARGTKCLRREAPRWDAPLRDPALRQLL
partner: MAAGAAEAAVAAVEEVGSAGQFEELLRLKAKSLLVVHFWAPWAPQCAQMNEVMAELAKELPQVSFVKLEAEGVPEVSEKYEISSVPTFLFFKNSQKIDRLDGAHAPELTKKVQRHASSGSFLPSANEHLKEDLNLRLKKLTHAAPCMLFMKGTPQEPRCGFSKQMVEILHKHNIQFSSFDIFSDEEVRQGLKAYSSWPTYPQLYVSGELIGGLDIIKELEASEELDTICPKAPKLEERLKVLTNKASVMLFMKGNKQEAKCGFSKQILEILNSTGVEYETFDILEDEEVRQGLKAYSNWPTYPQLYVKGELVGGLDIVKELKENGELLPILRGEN
B4: Ribose-phosphate pyrophosphokinase 1 (Homo sapiens), P60891 (parent)
chain: MPNIKIFSGSSHQDLSQKIADRLGLELGKVVTKKFSNQETCVEIGESVRGEDVYIVQSGCGEINDNLMELLIMINACKIASASRVTAVIPCFPYARQDKKDKSRAPISAKLVANMLSVAGADHIITMDLHASQIQGFFDIPVDNLYAEPAVLKWIRENISEWRNCTIVSPDAGGAKRVTSIADRLNVDFALIHKERKKANEVDRMVLVGDVKDRVAILVDDMADTCGTICHAADKLLSAGATRVYAILTHGIFSGPAISRINNACFEAVVVTNTIPQEDKMKHCSKIQVIDISMILAEAIRRTHNGESVSYLFSHVPL
partner: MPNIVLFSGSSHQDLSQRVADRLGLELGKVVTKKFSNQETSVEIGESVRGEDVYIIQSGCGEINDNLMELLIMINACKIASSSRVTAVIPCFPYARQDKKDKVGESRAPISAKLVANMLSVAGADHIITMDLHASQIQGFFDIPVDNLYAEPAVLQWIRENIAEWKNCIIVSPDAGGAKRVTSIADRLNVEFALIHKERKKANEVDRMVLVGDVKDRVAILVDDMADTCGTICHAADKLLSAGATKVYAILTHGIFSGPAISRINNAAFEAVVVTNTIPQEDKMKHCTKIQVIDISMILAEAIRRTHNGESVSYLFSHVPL
B5: Acetylcholine receptor subunit gamma (Homo sapiens), P07510-2 (parent)
chain: MHGGQGPLLLLLLLAVCLGAQGRNQEERLLADLMQNYDPNLRPAERDSDVVNVSLKLTLTNLISLNEREEALTTNVWIEMQWCDYRLRWDPRDYEGLWVLRVPSTMVWRPDIVLENKSQTYSTNEIDLQLSQEDGQTIEWIFIDPEAFTENGEWAIQHRPAKMLLDPAAPAQEAGHQKVVFYLLIQRKPLFYVINIIAPCVLISSVAILIHFLPAKAGGQKCTVAINVLLAQTVFLFLVAKKVPETSQAVPLISKYLTFLLVVTILIVVNAVVVLNVSLRSPHTHSMARGVRKVFLRLLPQLLRMHVRPLAPAAVQDTQSRLQNGSSGWSITTGEEVALCLPRSELLFQQWQRQGLVAAALEKLEKGPELGLSQFCGSLKQAAPAIQACVEACNLIACARHQQSHFDNGNEEWFLVGRVLDRVCFLAMLSLFICGTAGIFLMAHYNRVPALPFPGDPRPYLPSPD
B6: Keratin, type II cytoskeletal 2 epidermal (Homo sapiens), P35908 (parent)
chain: MSCQISCKSRGRGGGGGGFRGFSSGSAVVSGGSRRSTSSFSCLSRHGGGGGGFGGGGFGSRSLVGLGGTKSISISVAGGGGGFGAAGGFGGRGGGFGGGSSFGGGSGFSGGGFGGGGFGGGRFGGFGGPGGVGGLGGPGGFGPGGYPGGIHEVSVNQSLLQPLNVKVDPEIQNVKAQEREQIKTLNNKFASFIDKVRFLEQQNQVLQTKWELLQQMNVGTRPINLEPIFQGYIDSLKRYLDGLTAERTSQNSELNNMQDLVEDYKKKYEDEINKRTAAENDFVTLKKDVDNAYMIKVELQSKVDLLNQEIEFLKVLYDAEISQIHQSVTDTNVILSMDNSRNLDLDSIIAEVKAQYEEIAQRSKEEAEALYHSKYEELQVTVGRHGDSLKEIKIEISELNRVIQRLQGEIAHVKKQCKNVQDAIADAEQRGEHALKDARNKLNDLEEALQQAKEDLARLLRDYQELMNVKLALDVEIATYRKLLEGEECRMSGDLSSNVTVSVTSSTISSNVASKAAFGGSGGRGSSSGGGYSSGSSSYGSGGRQSGSRGGSGGGGSISGGGYGSGGGSGGRYGSGGGSKGGSISGGGYGSGGGKHSSGGGSRGGSSSGGGYGSGGGGSSSVKGSSGEAFGSSVTFSFR
partner: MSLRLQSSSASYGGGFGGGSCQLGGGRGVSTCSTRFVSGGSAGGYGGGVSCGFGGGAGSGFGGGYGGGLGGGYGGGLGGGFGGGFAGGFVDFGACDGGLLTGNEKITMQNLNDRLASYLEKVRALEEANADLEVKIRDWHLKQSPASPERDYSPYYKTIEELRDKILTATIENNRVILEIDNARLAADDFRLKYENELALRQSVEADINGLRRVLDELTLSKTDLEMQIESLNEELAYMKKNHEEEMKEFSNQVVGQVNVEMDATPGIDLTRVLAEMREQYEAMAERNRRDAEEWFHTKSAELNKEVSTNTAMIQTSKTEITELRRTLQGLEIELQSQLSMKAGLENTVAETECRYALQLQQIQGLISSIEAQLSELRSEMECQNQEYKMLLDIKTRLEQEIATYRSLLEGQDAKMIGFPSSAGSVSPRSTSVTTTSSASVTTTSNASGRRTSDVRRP
B7: Phospholamban (Homo sapiens), P26678 (parent)
chain: MEKVQYLTRSAIRRASTIEMPQQARQKLQNLFINFCLILICLLLICIIVMLL
partner: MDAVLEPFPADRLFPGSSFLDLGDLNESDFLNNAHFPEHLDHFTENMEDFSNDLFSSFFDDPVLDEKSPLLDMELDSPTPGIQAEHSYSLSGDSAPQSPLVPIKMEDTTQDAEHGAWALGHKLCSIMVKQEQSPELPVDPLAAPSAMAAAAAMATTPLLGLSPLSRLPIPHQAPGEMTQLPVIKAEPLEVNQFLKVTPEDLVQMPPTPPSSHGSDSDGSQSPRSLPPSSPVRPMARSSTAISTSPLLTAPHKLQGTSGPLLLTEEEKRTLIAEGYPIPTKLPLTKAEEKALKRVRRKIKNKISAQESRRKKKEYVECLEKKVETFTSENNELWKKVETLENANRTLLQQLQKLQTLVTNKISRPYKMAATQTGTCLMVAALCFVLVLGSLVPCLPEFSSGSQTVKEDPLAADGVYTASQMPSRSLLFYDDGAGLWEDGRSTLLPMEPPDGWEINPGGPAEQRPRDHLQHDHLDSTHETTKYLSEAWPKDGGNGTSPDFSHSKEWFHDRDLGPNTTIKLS

Variants of: B1
Settings: with sdcb1_human SDCBP

Row | Variant | effect of a mutation on the interaction
1 | V244M | disrupting interaction strength

Variants of: B2
Settings: with mdfi_human MDFI
Target sequence in this assay (Q99750 whole entry): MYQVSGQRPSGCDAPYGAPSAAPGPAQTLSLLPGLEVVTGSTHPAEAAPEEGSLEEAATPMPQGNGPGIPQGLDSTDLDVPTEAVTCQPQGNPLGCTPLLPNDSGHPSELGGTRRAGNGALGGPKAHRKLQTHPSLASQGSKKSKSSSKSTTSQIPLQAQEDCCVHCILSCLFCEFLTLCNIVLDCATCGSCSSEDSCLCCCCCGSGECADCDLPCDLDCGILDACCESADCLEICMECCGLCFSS

Row | Variant | effect of a mutation on the interaction
2 | S111I | disrupting interaction strength
3 | S38P | disrupting interaction strength

Variants of: B3
Settings: with glrx3_human GLRX3, O76003

Row | Variant | effect of a mutation on the interaction
4 | P248L | with no effect
5 | P451L | disrupting interaction strength
6 | A9D | disrupting interaction strength
7 | R432C | disrupting interaction strength

Variants of: B4
Settings: with PRPS2, P11908-2

Row | Variant | effect of a mutation on the interaction
8 | D52H | with no effect
9 | N114S | with no effect
10 | D183H | with no effect

Variants of: B5
Settings: with mdfi_human MDFI
Target sequence in this assay (Q99750 whole entry): as above

Row | Variant | effect of a mutation on the interaction
11 | R187C | disrupting interaction strength

Variants of: B5
Settings: with nt2na_human NOTCH2NLA

Row | Variant | effect of a mutation on the interaction
12 | R187C | disrupting interaction strength

Variants of: B5
Settings: with k1h1_human KRT31, Q15323
Chain of k1h1_human KRT31, Q15323 (Q15323 whole entry): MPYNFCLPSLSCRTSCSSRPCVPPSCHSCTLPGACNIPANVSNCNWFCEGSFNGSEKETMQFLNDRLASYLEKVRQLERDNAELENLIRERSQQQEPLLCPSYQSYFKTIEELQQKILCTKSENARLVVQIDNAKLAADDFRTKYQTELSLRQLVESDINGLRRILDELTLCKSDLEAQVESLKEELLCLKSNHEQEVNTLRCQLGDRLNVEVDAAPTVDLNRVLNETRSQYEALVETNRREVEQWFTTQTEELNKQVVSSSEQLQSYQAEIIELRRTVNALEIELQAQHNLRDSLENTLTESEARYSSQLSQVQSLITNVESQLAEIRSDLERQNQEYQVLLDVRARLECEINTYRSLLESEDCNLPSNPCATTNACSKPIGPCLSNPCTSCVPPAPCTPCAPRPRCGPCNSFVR

Row | Variant | effect of a mutation on the interaction
13 | R187C | disrupting interaction strength

Variants of: B5
Settings: with meox2_human MEOX2, P50222
Chain of meox2_human MEOX2, P50222 (P50222 whole entry): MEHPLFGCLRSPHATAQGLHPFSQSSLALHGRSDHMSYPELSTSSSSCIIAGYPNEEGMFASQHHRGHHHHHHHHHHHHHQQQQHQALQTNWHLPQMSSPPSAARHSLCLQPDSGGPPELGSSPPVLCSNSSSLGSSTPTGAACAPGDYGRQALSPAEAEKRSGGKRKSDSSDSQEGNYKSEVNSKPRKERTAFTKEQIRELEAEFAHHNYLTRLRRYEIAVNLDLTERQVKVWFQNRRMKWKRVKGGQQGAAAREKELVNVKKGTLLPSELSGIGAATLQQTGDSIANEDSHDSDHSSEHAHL

Row | Variant | effect of a mutation on the interaction
14 | R187C | disrupting interaction strength

Variants of: B6
Settings: with KRT13, P13646

Row | Variant | effect of a mutation on the interaction
15 | I477N | disrupting interaction strength
16 | N186K | with no effect
17 | G219D | with no effect
18 | L484P | with no effect

Variants of: B7
Settings: with cr3l1_human CREB3L1, Q96BA8

Row | Variant | effect of a mutation on the interaction
19 | R9C | with no effect
